In general, Kd refers to the equilibrium constant for the complex coming apart. Lower therefore signals a tighter complex.

The values below come from PMC6488853 (2019).

The target in the test is T1, Spermine synthase (Homo sapiens, UniProt P52788).
T1 chain: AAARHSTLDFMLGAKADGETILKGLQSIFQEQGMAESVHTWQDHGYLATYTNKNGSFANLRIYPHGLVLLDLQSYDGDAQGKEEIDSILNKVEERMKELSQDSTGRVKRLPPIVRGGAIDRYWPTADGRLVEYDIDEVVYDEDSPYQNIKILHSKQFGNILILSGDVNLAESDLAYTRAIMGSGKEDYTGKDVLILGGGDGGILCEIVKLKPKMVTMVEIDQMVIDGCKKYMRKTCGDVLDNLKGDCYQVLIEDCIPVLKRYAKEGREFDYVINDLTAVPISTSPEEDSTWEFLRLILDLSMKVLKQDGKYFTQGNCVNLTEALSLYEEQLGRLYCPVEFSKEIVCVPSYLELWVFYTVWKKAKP
In words: MST.

B1: Myosin Va GTD (protein)
chain: MENISPGQIIDEPIRPVNIPRKEKDFQGMLEYKKEDEQKLVKNLILELKPRGVAVNLIPGLPAYILFMCVRHADYLNDDQKVRSLLTSTINSIKKVLKKRGDDFETVSFWLSNTCRFLHCLKQYSGEEGFMKHNTSRQNEHCLTNFDLAEYRQVLSDLAIQIYQQLVRVLENILQPMIVSGMLEHETIQGVSGVKPTGLRKRTSSIADEGTYTLDSILRQLNSFHSVMCQHGMDPELIKQVVKQMFYIIGAITLNNLLLRKDMCSWSKGMQIRYNVSQLEEWLRDKNLMNSGAKETLEPLIQAAQLLQVKKKTDDDAEAICSMCNALTTAQIVKVLNLYTPVNEFEERVSVSFIRTIQMRLRDRKDSPQLLMDAKHIFPVTFPFNPSSLALETIQIPASLGLGFISRV
With B1, the affinity, expressed as Kd, was 3.5 µM. This counts as single-digit micromolar.
